The record followed here is patent publication US20100310590A1.

To fix the notation:
B1: SEQ ID NO:4 (protein)
chain: MSWQTYVDEHLMCDIDGQASNSLASAIVGHDGSVWAQSSSFPQFKPQEITGIMKDFEEPGHLAPTGLHLGGIKYMVIQGEAGAVIRGGEGSGGITIKKTGQALVFGIYEEPVTPGQCNMVVERLGDYLIDQGL
B2: wild-type Bet v 2 allergen (SEQ ID NO:1) (protein)
chain: B1 chain with G88K, E89K
B3: SEQ ID NO:2 (protein)
chain: B1 chain with S39A, G88K, E89K
B4: SEQ ID NO:6 (protein)
chain: B1 chain with S39A
B5: SEQ ID NO:3 (protein)
chain: B1 chain with K45T, G88K, E89K

Changes are numbered by the printed parent chain.

The test concerns the target IgEs from a serum pool of patients allergic to birch pollen (RAST 3+ and 4+ to Bet v 2) (human). The experiment in a line: REAST inhibition: serum pool pre-incubated with inhibitor, IgE captured on anti-IgE plate, biotinylated Bet v 2 detection.
In turn, B1 yielded a percent inhibition of Bet v 2 wt binding to IgE at 1.45 ng inhibitor of 13.4%.
The molecule B2 yielded a percent inhibition of Bet v 2 wt binding to IgE at 1.45 ng inhibitor of 82.6%.
The result for B3 reads 40.4%; that for B4, 8.8%.
In the case of B5, the percent inhibition of Bet v 2 wt binding to IgE at 1.45 ng inhibitor turned out to be 71%.
